According to article PMC12693566:

Target: UNC-119 tagged with the C-terminal fragment of Venus (C. elegans) (UniProt Q10658)
Assay: split reporter (BiFC, NanoBiT); BiFC in vivo in transgenic C. elegans (AWC neurons); ODR-3 tagged with VN, partner tagged with VC; read-out is the percentage of animals showing Venus fluorescence

Chain of UniProt Q10658 (Q10658 whole entry, the tested form may be a part): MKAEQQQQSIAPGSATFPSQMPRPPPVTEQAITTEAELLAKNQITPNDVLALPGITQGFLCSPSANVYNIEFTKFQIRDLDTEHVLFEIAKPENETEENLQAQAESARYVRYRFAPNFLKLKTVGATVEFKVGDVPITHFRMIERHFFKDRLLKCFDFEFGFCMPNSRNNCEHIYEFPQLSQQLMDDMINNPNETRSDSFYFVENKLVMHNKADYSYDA

percent of animals with BiFC [%]	Substance
51	ODR-3^A328P tagged with the N-terminal Venus fragment (from UniProt Q18434 1-356) (natural protein)
81	ODR-3^WT tagged with the N-terminal Venus fragment (from UniProt Q18434 1-356) (natural protein)
